Assay results from PMC7076015.

Experiments:
[1] = molecular target: MBP-KPNA7(E344Q) (human) (UniProt A9QM74)
[2] = molecular target: MBP-KPNA7(E344Q) (human) (UniProt A9QM74); assay: pull-down; MBP fusion proteins on amylose resin (1 μg/μl), GST-GFP-NLS constructs in solution (250 nM or indicated concentrations) with Imp-β (250 nM); 2 hrs at 4 °C, 20 mM Tris pH 8, 200 mM NaCl, 1 mM EDTA, 1 mM DTT, 0.05% Triton X-100; western blot
[3] = molecular target: MBP-KPNA7(E344Q) (human) (UniProt A9QM74); remark: listed apart in the source

Chain of MBP-KPNA7(E344Q) (human) (A9QM74 whole entry E344Q, the tested form may be a part): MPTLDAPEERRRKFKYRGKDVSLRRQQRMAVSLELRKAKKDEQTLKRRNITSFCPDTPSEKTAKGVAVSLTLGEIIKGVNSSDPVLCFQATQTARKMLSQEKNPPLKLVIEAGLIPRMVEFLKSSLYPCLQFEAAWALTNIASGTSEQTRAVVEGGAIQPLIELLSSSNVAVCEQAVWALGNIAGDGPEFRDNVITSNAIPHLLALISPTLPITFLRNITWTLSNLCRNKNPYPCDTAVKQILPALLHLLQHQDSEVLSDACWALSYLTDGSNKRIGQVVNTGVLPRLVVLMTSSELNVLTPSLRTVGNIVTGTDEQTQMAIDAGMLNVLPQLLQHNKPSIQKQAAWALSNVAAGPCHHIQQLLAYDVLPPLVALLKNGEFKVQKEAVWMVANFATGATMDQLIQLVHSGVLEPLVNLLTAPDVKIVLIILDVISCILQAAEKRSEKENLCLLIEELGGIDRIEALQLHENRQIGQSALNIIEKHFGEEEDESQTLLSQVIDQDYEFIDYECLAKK
Chain of GST-GFP-hnRNP U monopartite NLS (domain or fragment) (Q00839 2-825): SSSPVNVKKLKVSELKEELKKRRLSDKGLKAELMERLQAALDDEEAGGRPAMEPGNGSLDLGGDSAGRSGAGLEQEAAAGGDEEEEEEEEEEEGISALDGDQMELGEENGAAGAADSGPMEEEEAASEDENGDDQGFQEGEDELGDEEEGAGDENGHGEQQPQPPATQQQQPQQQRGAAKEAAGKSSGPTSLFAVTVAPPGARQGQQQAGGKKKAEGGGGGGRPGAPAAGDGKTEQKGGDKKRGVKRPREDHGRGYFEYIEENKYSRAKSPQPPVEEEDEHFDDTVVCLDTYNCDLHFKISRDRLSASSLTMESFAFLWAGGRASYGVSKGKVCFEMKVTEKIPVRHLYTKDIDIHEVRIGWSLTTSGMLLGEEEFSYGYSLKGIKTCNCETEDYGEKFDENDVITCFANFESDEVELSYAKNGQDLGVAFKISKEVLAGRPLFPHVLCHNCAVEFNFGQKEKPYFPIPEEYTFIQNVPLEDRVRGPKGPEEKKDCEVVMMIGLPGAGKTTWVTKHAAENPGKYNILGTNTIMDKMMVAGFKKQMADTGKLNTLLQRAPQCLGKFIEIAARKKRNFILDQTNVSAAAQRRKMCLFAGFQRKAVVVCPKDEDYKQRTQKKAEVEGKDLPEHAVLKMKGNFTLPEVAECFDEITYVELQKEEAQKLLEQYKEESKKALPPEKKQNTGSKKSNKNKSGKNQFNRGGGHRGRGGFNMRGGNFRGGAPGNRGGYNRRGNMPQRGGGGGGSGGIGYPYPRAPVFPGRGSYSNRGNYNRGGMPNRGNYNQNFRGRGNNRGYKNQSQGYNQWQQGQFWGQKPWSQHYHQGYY

fold less binding than WT or P339A KPNA7 [2]	nuclear import of GST-GFP-hnRNP U-mNLS in digitonin-permeabilized HeLa cells, reduction compared to WT KPNA7 [3]	Substance	nuclear import of GST-GFP-NLS in digitonin-permeabilized HeLa cells, reduction compared to wild-type KPNA7 [1]
		GST-GFP-SV40-NLS (domain or fragment)	20%
8 fold	30%	GST-GFP-hnRNP U monopartite NLS (domain or fragment)	
